This series is described as follows: soluble on expression in E. coli; label from the status in PepcDB or PDB records.
For the sequence “MGSDKIHHHHHHMNSKYNFQYFQGSSLSDLFAQDITDGSYGFILNYPATASWAAYPNRKKYFIQDGSSEASKTSFDKICQKEPWKNLAVLGDRIPGIVIIPPPKPLLEYWQEHFGFKHSNIEMMDCSTYLDDLSHSDRFDKLITLFPFDCLKPEKHAVTSDTHYRLLSKVTLEEIGVQCPKYKSYNLHQVNIVDIQLPQFPYLIKTSHGLSGEGTYIIKNPSDLNYCLEEINKYLDIKLLDTIIVSEFIKNEVQNYCVQFYVNKAGEITLIGTTGQLVTPEGNYLGGVIDYGKTDMSKFFEMIANVGDYAHKQGYFGVIGFDVLENQDGQFYAIDANFRVNGSTPLCLQRHTLLRLGKEVAKYSSSYRMEGTLESILITLKPELDRKDLIILSALEKAKYGKIYTELYAIVTGETIAQMQYIEQQLQTKGLQLLS”, the “soluble on expression in E. coli” value was “not soluble”. In the case of “MNVLICQQPKELVWKQREIPIPGDNEALIKIKSVGICGTDIHAWGGNQPFFSYPRVLGHEICGEIVGLGKNIADLKNGQQVAVIPYVACQQCPACKSGRTNCEKISVIGVHQDGGFSEYLSVPVANILPADGIDPQAAALIEPFAISAHAVRRAAIAPGEQVLVVGAGPIGLGAAAIAKADGAQVVVADTSPARREHVATRLELPLLDPSAEDFDAQLRAQFGGSLAQKVIDATGNQHAMNNTVNLIRHGGTVVFVGLFKGELQFSDPEFHKKETTMMGSRNATPEDFAKVGRLMAEGKITADMMLTHRYPFATLAETYERDVINNRELIKGVITF” it was “not soluble”. Take “MGSDKIHHHHHHMAADVATPFQQLRINKFAAIQNGQFVASFKVPRSAGFTLIIPNADDFLTNNISIMTPDNKVLDASNFAAFGVEFSQFSPDNELTAFLATGNSWIIKFSDVIPGSYTVRGVTSSAKSHLPIRVLVKNSDIALHLVIGSPSNIPMVNHHLPISVLMVDGDLPYINGNVSFEIFKDGEALQHANIRDDGVYPDYQANDGTYSTLFMPLSAGVYDVLINISGRNKNGDKFEAQIFRSFKVLQDNVYLTGKHSEVLIDEDGDGYNDALMLEFETGGVFQEEGVYYITVNLETNDGRTLVAHQRIESPEKKFYVKFDGKYLGTLDYSGAFKFFSIVIEYNDSIIHLNQSFGSTSYYDHDSWERDDLLYLGNVTFEPIYSADGRFIEMIDVSFEVDTLPTAARFGYSATITTVGNEHVGVYGNPDIELKKGINRITFSIPAADFAKLQSNTALKISQLTMYPLIKGGNVISKRNVATSELYSCWDFRGCSTAENAIPVAVDDEVTSTGKAMYIHVAQNDYDGDLLKVSDQKKDNFGTLTQWSIQFD”: the “soluble on expression in E. coli” value is reported as “not soluble”. In the case of “MIGFIGSVFSPWYRWSGRKEPQNHCCLNVATYGPGGRFTMTDRGRAALRQSPDTLTVGPSRMHWTGTQLIVEVNEISSPPLVSPVKGRIVLTPTGITDVEVTLKDDGSHIWRPFAPTARIEVDLTQGHRWHGHGYFDANFGTAALEADFRFWTWGRYPVADGAACFYDATRRDGSRLELGLHVAADGRARLIQPPPEARFARSRWLVERHTPADPGTRPRQVMSMLDAPFYSRAMVETTVFGQKTVGVHEALDLRRFRSPLLMPMLAVRVPRRPGWSF” it was “not soluble”. Regarding “MMGNDSYSSNRGSSRDVLSFLQNFLGGFYAKYGIEVKLVGGLSLSKFYYAFDAERNQFLARHFLPVLSYIKKDFNARAALGIVNVDIYEPGFNFIFGLAHPGLKVAVVSLYRLYPEFYGNPPDRKLLKERALKEVMHELGHVFGLGHCPNPKCVMHFSNSIIDTDIKSWMYCESCLRKLEKNLARSHVLEHHHHHH”, the “soluble on expression in E. coli” value was “not soluble”. Turning to “MKYNTMNNDEIILSLCARLKETRLSLSMTQQQLADRAHVGIATIKRIEKGGGLNLDTLISLLRALDKLHNLDAVLFESELRNFHESYEGGEGSGRLQVRQQAADLNNKSSAPQSEEVNYSAALENSLCW”, the “soluble on expression in E. coli” value is recorded as “not soluble”. In the case of “AHHHHHHGSRFLIRLVPEDKDRAFKVPYNHQYYLQGLIYNAIKSSNPKLATYLHEVKGPKLFTYSLFMAEKREHPKGLPYFLGYKKGFFYFSTCVPEIAEALVNGLLMNPEVRLWDERFYLHEIKVLREPKKFNGSTFVTLSPIAVTVVRKGKSYDVPPMEKEFYSIIKDDLQDKYVMAYGDKPPSEFEMEVLIAKPKRFRIKPGIYQTAWHLVFRAYGNDDLLKVGYEVGFGEKNSLGFGMVKVEGNKTTKEAEEQEKITFNSREELKTGV” it was “not soluble”. Turning to “TPDTLELSLDKPAYRPGETAQLRIVPRAPGKALVTVLSNRVIAMKAVEVGEGETLVDLPVTDEWGTGVYVTATLLRPMDVAAGRNPTRALGLAHAAIDPGEKRLGATIETAAEAAPRGPMEIAVKVEGTAPGETVHATIAAVDVGILNLTGF”, the “soluble on expression in E. coli” value is reported as “not soluble”. Consider “MIQGVIQKIAGPAVIAKGMLGARMYDICKVGEEGLVGEIIRLDGDTAFVQVYEDTSGLKVGEPVVSTGLPLAVELGPGMLNGIYDGIQRPLERIREKTGIYITRGVVVHALDREKKWAWTPMVKPGDEVRGGMVLGTVPEFGFTHKILVPPDVRGRVKEVKPAGEYTVEKPVVVLEDGTNLKMYHTWPVRRPRPVQRKLDPNTPFLTGMRILDVLFPVAMGGTAAIPGPFGSGKTVTQQSLAKWSNADVVVYVACGDRGNEMTDVLVEFPELTDPKTGGPLMRRTVLIANTSNMPVAAREASIYVGVTIAEYFRDQGFSVALMADSTSRWAEALREISSRLEEMPAEEGYPPYLAARLAAFYERAGKVITLGGEEGAVTIVGAVSPPGGDMSEPVTQSTLRIVGAFWRLDASLAFRRHFPAINWNGSYSLFTSALDPWYRENVAEDYPELRDAISELLQREAGLQEIVQLVGPDALQDAERLVIEVGRIIREDFLQQNAYHEVDAYCSMKKAYGIMKMILAFYKEAEAAIKRGVSIDEILQLPVLERIGRARYVSEEEFPAYFEEAMKEIQGAFKALA”, for which the “soluble on expression in E. coli” value was “soluble”. With “TMNNEMSDPQIEEFYTIVKELEKFDTFTNFLDVHQPELAIVFGRTKRRVDELTSALISKGYKAEGLHGDITQAKRLEVLKKFKNDQINILVATDVAARGLDISGVSHVYNFDIPQDTESYTHRIGRTGRAGKEGIAVTFVNPIEMDYIRQIEDANGRKMSALRPPHRKEVLQAREDDIKEKVENWMSKESESRLKRISTELLNEYNDVDLVAALLQELVEANDEVEVQLTFEKPLSRKGRNGKPSGSR”, the “soluble on expression in E. coli” value is “not soluble”. For the sequence “MFIREEEQMKRMIITIGRQSGSSGRKVGELLAERLSLPLYGKAELQKIAEGTDDYEEVQAFYEEEPVNSLLYAIAMSQFEQEVGRIPFQRIRELASKESCIIIGRCAGHIFREDPEAVRVFIHADPKIRVQRIMEREGLSETKAKKFLEDTDSRRASFHKYYTKQEWGLAQDYELCLDSGVLGIEGTVEVLTEYLRFRGFLGNE”, the “soluble on expression in E. coli” value is given as “not soluble”. As for “GPGSMSKGAVVLVLDITLPRAAALVEACNLCDRILTDKMIYAPSDEVSVILAGTEKSRSALYEQSVQARYNHITVAAELGPATSLTLAPIAATRAGVAVLPEGETVRPSIAEAYDFIDALQVAVAVLQARTSQKKYNRCIYFLTDARHEVRHKEDLLSLIDILQRDQVALVVIGFDFQALPAPADSQGEFNESTTVVPSAWAALDRKAQNERILAALCTELGPPSTLVSPAEALASLSLLRCRRIRQQPVLKVALRMGDVRLATQLFTLTQEERLPSLRRSTQDGVDVAQTIEYVVLGGVEERPCALAKEERVEAFFLGVDRISCSEADREAMRVKGPRALEAIGFVGEAEVEPYLLMGGTRALLPLAGDHAGQRGFNALVDAMASSRKAMLVRLVRTADAAPSLCVCFARTAGSSAAQRHLVLAPLPFAEDVRALRFSEYPELQFSAAEEQLMDELIDGLSVDDSVLAPHDTFNPVLQQYYATLRAKLSAMNVSAEKGNTKATSPEAAVPQLLPTLRGTSTDFFAEGSEVYEVVSAHRSALVSCATAFPYEDEADALLSGSRDAGRKGKPWYQDVAMTPSLIGPQAGSPPPAAQGSDGAPSTIAPAIAGGARCGGEADEASAGSHTASDANSISTVPHDTISGGVSFAITSVDPVGSFSMIVHHPAVTEAQLNKAKDDLSDVIWELLRSSIKDAIYRKCMACIMALRQFCVTQDDAAYYNDFLLKLEVVARQCSRDADFWVPYVVERKDGANVWPITAQECKSAALPDDTAAKAFLQKDRFDPAIAFDDTADDDDWLAEIQ”, the “soluble on expression in E. coli” value is “not soluble”.
